Source: publication PMC10397247

T1: O9
T1 chain: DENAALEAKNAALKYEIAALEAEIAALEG

T2: APC542-AA
T2 chain: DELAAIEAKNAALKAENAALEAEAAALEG

T3: APC9806-AA
T3 chain: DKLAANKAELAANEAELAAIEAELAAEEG

T4: APC4336-AA
T4 chain: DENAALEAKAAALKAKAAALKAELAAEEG

T5: APC9291-AA
T5 chain: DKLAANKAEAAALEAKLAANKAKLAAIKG

T6: APC9141-AA
T6 chain: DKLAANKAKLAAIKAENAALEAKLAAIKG

T7: APC9182-AA
T7 chain: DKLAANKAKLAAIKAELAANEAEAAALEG

T8: APC3881-AA
T8 chain: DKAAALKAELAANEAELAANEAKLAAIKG

T9: APC5009-AA
T9 chain: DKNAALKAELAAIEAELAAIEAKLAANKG

T10: APC4100-AA
T10 chain: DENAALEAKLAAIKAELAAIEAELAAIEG

T11: APC3354-AA
T11 chain: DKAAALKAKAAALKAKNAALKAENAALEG

T12: APC8401-AA
T12 chain: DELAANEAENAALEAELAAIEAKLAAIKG

T13: APC6088-AA
T13 chain: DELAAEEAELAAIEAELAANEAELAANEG

T14: APC8516-AA
T14 chain: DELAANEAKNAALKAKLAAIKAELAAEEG

T15: APC7524-AA
T15 chain: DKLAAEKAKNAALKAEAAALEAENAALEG

T16: APC5531-AA
T16 chain: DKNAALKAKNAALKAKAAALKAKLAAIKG


Key:
[1] = target: T1, O9; test: two-hybrid library CCNG1;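 note: natural log of median RNA to DNA barcode read ratio; higher means stronger binding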
[2] = target: T2, APC542-AA; test: two-hybrid library CCmax; conditions: mean of both orientations;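 note: natural log of median RNA to DNA barcode read ratio; higher means stronger binding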
[3] = target: T3, APC9806-AA; test: two-hybrid library CCmax; conditions: mean of both orientations;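 note: natural log of median RNA to DNA barcode read ratio; higher means stronger binding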
[4] = target: T4, APC4336-AA; test: two-hybrid library CCmax; conditions: mean of both orientations;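 note: natural log of median RNA to DNA barcode read ratio; higher means stronger binding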
[5] = target: T5, APC9291-AA; test: two-hybrid library CCmax; conditions: mean of both orientations;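 note: natural log of median RNA to DNA barcode read ratio; higher means stronger binding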
[6] = target: T6, APC9141-AA; test: two-hybrid library CCmax; conditions: mean of both orientations;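 note: natural log of median RNA to DNA barcode read ratio; higher means stronger binding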
[7] = target: T7, APC9182-AA; test: two-hybrid library CCmax; conditions: mean of both orientations
[8] = target: T8, APC3881-AA; test: two-hybrid library CCmax; conditions: mean of both orientations
[9] = target: T9, APC5009-AA; test: two-hybrid library CCmax; conditions: mean of both orientations
[10] = target: T10, APC4100-AA; test: two-hybrid library CCmax; conditions: mean of both orientations
[11] = target: T11, APC3354-AA; test: two-hybrid library CCmax
[12] = target: T12, APC8401-AA; test: two-hybrid library CCmax; conditions: mean of both orientations
[13] = target: T13, APC6088-AA; test: two-hybrid library CCmax; conditions: mean of both orientations
[14] = target: T14, APC8516-AA; test: two-hybrid library CCmax; conditions: mean of both orientations
[15] = target: T15, APC7524-AA; test: two-hybrid library CCmax; conditions: mean of both orientations
[16] = target: T16, APC5531-AA; test: two-hybrid library CCmax; conditions: mean of both orientations

Binder	interaction score [1]	interaction score [2]	interaction score [3]	interaction score [4]	interaction score [5]	interaction score [6]	interaction score [7]	interaction score [8]	interaction score [9]	interaction score [10]	interaction score [11]	interaction score [12]	interaction score [13]	interaction score [14]	interaction score [15]	interaction score [16]
DENAALEAKNAALKYEIAALEAEIAALEG [O9]	-2.24															
DKAAALKAKAAALKAKNAALKAENAALEG [APC3354-AA]		-1.89	-1.33	-2.08	-1.68	-1.68	-1.72	-1.72	-1.49	-1.66	-1.59	-1.48	-1.77	-1.98	-1.71	-1.92
